This test concerns the target human MDM2 (human) (UniProt Q00987). Nature of the test: cell-based or functional assay.

Chain of human MDM2 (human) (Q00987 whole entry): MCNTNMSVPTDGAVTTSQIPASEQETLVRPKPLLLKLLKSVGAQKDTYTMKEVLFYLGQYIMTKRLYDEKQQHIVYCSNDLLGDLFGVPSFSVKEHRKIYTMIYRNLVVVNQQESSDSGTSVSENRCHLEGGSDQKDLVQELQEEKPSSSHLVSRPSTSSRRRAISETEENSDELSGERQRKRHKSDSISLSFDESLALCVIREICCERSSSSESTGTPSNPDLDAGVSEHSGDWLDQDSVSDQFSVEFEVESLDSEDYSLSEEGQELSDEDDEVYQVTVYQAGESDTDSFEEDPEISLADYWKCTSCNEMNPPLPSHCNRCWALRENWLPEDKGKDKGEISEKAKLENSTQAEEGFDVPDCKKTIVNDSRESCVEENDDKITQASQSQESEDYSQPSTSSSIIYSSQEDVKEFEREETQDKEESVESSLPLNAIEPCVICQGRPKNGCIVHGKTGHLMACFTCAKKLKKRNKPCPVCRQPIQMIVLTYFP

The substance HA-tagged human TSG101 returned a reduction of the p53 level expressed from a transfected construct in Saos-2 cells (Western blot, relative to alpha-tubulin) of 70%.

human TSG101 protein: the MDM2 half-life after cycloheximide (Western blot); approximately 15 min without TSG101 co-expression is 28 min.

The values above are taken from patent publication US20030138839A1.
